Assays:
Conditions in all cases: 20 nM; 72 h
[1] = tested on: MCF10A; experiment: one-nucleolus phenotype percent effect (relative to siNT 0% and siNOL11 100%); higher = more cells with one nucleolus (ribosome biogenesis inhibition)
Protocol: (§1)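 After 72 h, cells were fixed and stained with Hoechst and anti-fibrillarin, and nucleoli per nucleus were counted with CellProfiler. Values are plate-adjusted percent effect for the one-nucleolus and 5+ nucleoli phenotypes, normalised to siNT (0%) and to the positive controls siNOL11 or siKIF11 (100%), as the mean of biological triplicates. Percent viability is the nuclei count relative to siNT.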

[2] = tested on: MCF10A; experiment: 5+ nucleoli phenotype percent effect (relative to siNT 0% and siKIF11 100%); higher = more cells with five or more nucleoli
Protocol: as §1

[3] = tested on: MCF10A; experiment: percent viability (nuclei count relative to siNT); higher = more viable cells
Protocol: as §1

Row | Sequence | one-nucleolus phenotype percent effect [1] [%] | 5+ nucleoli phenotype percent effect [2] [%] | percent viability [3] [%]
1 | UUUUGCAUGACCCUGGGAGUAGG [hsa-miR-3680-3p] | 11.5 | -18.3 | 51
2 | GCGGAGAGAGAAUGGGGAGC [hsa-miR-5739] | -16.4 | 53.5 | 110
3 | GCAGCAGGGUGAAACUGACACA [hsa-miR-761] | 4.85 | 9.29 | 56.9
4 | UGAGAUGAAGCACUGUAGCUC [hsa-miR-143-3p] | -0.991 | -1.77 | 47.9
5 | AGUGGGGAACCCUUCCAUGAGG [hsa-miR-491-5p] | 47.1 | -46.6 | 10.1
6 | GAAGCUCUCCCCUCCCCGCAG [hsa-miR-6796-3p] | -14.7 | 5.79 | 103
7 | AAGAAGAGACUGAGUCAUCGAAU [hsa-miR-5197-3p] | -5.79 | 26.1 | 24.8
8 | UGCCUGGGUCUCUGGCCUGCGCGU [hsa-miR-661] | 23.1 | -18.5 | 23
9 | UGAAGCUCUGACAUUCCUGCAG [hsa-miR-6806-3p] | 15.3 | -18.7 | 26.6
10 | UGAGGCUCUGUUAGCCUUGGCUC [hsa-miR-2467-5p] | 37.5 | -10.9 | 29.8
11 | UUGGUGAGGACCCCAAGCUCGG [hsa-miR-7855-5p] | 73.9 | -27.6 | 7.91
12 | ACUUACAGACAAGAGCCUUGCUC [hsa-miR-600] | -28.1 | 41.8 | 145
13 | AAAGGUAAUUGUGGUUUCUGC [hsa-miR-548ag] | -6.82 | 4.63 | 75.7
14 | AAGCUGCCAGUUGAAGAACUGU [hsa-miR-22-3p] | -3.65 | 8.61 | 35.3
15 | UUAAUGCUAAUCGUGAUAGGGGU [hsa-miR-155-5p] | 8.74 | -38.5 | 38.2
16 | UGACUCUGCCUGUAGGCCGGU [hsa-miR-4522] | 23.6 | -19.6 | 16.2
17 | UAAAUUUCACCUUUCUGAGAAGG [hsa-miR-513a-3p] | 18 | -3.52 | 49
18 | GAAAAUCCUUUUUGUUUUUCCAG [hsa-miR-4668-3p] | -14.6 | 28.5 | 72.8
19 | AGGAGGACAAGUUGUGGGAU [hsa-miR-7154-3p] | 39.7 | -9.57 | 7.01
20 | CCUCGGUACUGGAAAGGGGUA [hsa-miR-8088] | -9.43 | 15.8 | 108
21 | CAGGGCUGGCAGUGACAUGGGU [hsa-miR-4446-3p] | 1.33 | -5.74 | 25.9
22 | CCUGAGCCCGGGCCGCGCAG [hsa-miR-1199-5p] | -24.2 | 27.4 | 71.4
23 | ACUGGGAUGUCACUGAAUAUGGU [hsa-miR-6506-5p] | 25 | -3.32 | 28.3
24 | CAUACAAUCUGACAUGUAUUU [hsa-miR-4666a-3p] | -4.04 | 15.8 | 66.1

From the supplement of paper PMC10899765
